According to the nanobody polyreactivity screen of Harvey et al. (2022):

Assay: yeast display, Sf9 membrane polyspecificity reagent, FACS + sequencing; frameworks hold sequencing errors
How it was run: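 In a synthetic yeast display library (Saccharomyces cerevisiae BJ5465), nanobody expression was induced with galactose for 36–48 hours. FACS gates were set low and high (top ~1%) using anti-HA fluorescence for expression and streptavidin fluorescence for binding of the Sf9 membrane reagent. Each polyreactivity label is drawn from the gate of origin.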

Row | Sequence | polyreactivity (PSR sort gate)
1 | QVHLVESGGGLVQAGGSLRLSCAASGFTFSYYAMGWYRQPPGKERELVAAITTSGGRTYYADSVKGRFPISRDNAKNTVYLQMNSLKPEDTAVYYCAATYPRYYSGEFDYWGQGTQVTVSS | high polyreactivity
2 | QVQLVESGGGLVEAGGSLRLSCADSGRIFLRNAMGWSRQAPGKERELVAAINRGGRTNYADSVKGRFTISRDNAKNTVYLQMNSLKPEDTAVYYCATERESPGYTEYDSWGQGTQVTVSS | low polyreactivity
3 | QVQLVESGGGLVQAGGSLRLSCAASGRTFYYYAMGWYRQAPGKERELVARISRGGSTNYADSVKGRFTISRDNAKNTVYLQMNILKPEDTAVYYCAKTISYTGRFWGYDYWGQGTQVTVSS | high polyreactivity
4 | QVQLVESVGGLVQAGGSLRLSCAASGITFSLYAAMGWYRQAPGKERELVAAISWRGGNTYYADSVKGRFTISRDNAKNTVYLQMNSLKPEDTAVYYCAARRTNLPVNFYYWGQGTQVTVSS | high polyreactivity
5 | QVQLVESGGGLVQAGGSLRLSCAASGRIFTNNARGWYSQAPGKERELVDAINVSGGRTYYADSVKGRFTISRDNAKNTVYLQMNSLKPEDTAVYYCNKVKETYMDNWGQGTQVTVSS | high polyreactivity
6 | QVQLVESGGGLVQEGGSLRLSCASSGITFYSNAMGWYRQAPGKERELVATITRGGSTYYADSVKGRFTISRDNAKTTVYLHMNSLKPEDTAVYYCAADYSYRGREYGYWGQGTQVTVSS | low polyreactivity
7 | QVQLVESGGGLVQPGGSLRISCAASGSTFEYYAMGWYRQAPGKERELVAAITGSGGSTNYADSVKGRFTISRDNAKNTVYLQMNSLKPEDTAVYYCAADVYDAGVRYDYWGQGTQVTVSS | high polyreactivity
8 | QVQLVESGGGLVQAGGSLRLSCAASGSIFPDYAMGWYRQAPGKERELVAAIDTSTTDTYYADSVKGRFTISRDNAKNTVYLQMNSLKPEDTAVYYCAADAYDDPYGYWGQGTQVTVSS | high polyreactivity
9 | QVQLVESGGAIVQAGGSHRLRCAASGSILGRYAMAWYRQAPGKERELVAAISRRGGSTTYADSVKGRFTISRDNAKNTVYFQMNSLKPEDTALYYCNTVSSWGRNYQDEYDYWGQGTQVSVSS | high polyreactivity
10 | QVQLEESGGGLVQAGGSLRLSCAASGSTLGYNVMGWYRQAPGKERELVAAISGDGSTNYADSVKGRFTISRDNAKNTVYLQMNSLKPEDTAVYYCAADTYGGSRDYWGQGTQVTVSS | low polyreactivity
11 | QVQLVESGGGLVQAGGSLRLSCAASGIIFRFYSMGWYRKEPGKERELVAAITSSGGSTYYADSEKGRFTISRDNAKNTVYLQMNSLKPEDSAVYYCATSTGPYRGRFYYWGQGTQVTGSS | high polyreactivity
12 | QVQLVESGGGLVQAGGSLRLSCAASGSTFHLYAMGWYRKAPGKEREFVAAIRGRGGNTYADSVKGRFTISRDNAKNTVYLQMNSLKPEDTAVYYCAAPLLRDLRSPYSYNYWGQGTQVTVSS | low polyreactivity
13 | QVQHVESRGGLVQAGGSLRLSCAASGLILSGYTMGWYRPAPGKERELVAAISRSGGSTYYADSVKGRFTISRDNAKNTVYLQMNSLKPEDTAVYYCAKVPIYRYGVWAMNYWGQGTQVTVSS | high polyreactivity
14 | QVQLVESGGGLVQAGGSLRLSCAASGRIFGHYAMGWYRQAPGKERELVASITDGTSTNYADSVKGRFTISRDNAKNTVYLQMNSLKPEDTADYYCAADDRLQFPRGDYCGQGTQVTVSS | low polyreactivity
15 | QDQLVESGGGLVQAGGSLRLSCAASGSTFKRYAMGWYSQAPGKVRELVAAISRRGGSTYYADSVKGRFTISRDNAKNTVYLQMNSLKPEDTAVYYCAARIASHHYYYWGQGTQVTVSS | high polyreactivity
16 | QVQLVESGRGLVQAGGSLRLSCAASGITFTGYAMGWYRQAPGKERELVAASTSGGSTTYADSVKGRFTISRDNAKNTVYLQMNSQKPEDTAVYYCGARTADYSTAEYDYWGQGTQLTVSS | low polyreactivity
17 | QVHLVESGGGLVQAGGSLRLSCAASGLTFIPNAMGWYRQAPGKERELVAAISGTGGSTYYADSVKGRFTISRDNAKNTVYLQMNRLKPEDTAVYYCAARRRYKSGYWGQGTQVTVSS | high polyreactivity
18 | QVQLVESGGGLVQAGGSLRLSCAASGRTFGYYAMGWYRQAPGKERELVAAISSSGGSTYYADSVKGRFTISRDNAKNTVYLQMNSLKPEDTAVYYCAARFANGGGYWGQGTQVTVSS | high polyreactivity
19 | QVQLVESGGGLVQAGGSLRLSCAASGSTFVQNAMGWYRQAPGKERELVAAISRTGGSTYYADSVKGRFTISRDNAKNTVYLQMKSLIPEDTAVYYCATRPPHYSWPKIIEFGSWGQGSQVTVSS | high polyreactivity
20 | QVQLVESGGGLVQAGGSLRFSCADSGRTFRYYAMGWDIQARGKERELVAAISRGGRTNYGDSVKGRFTISRDNAKNTVYIQMNSLKPVDTAVYYCAVGGYSYYTVGYDYWGQGTQVTVSS | high polyreactivity
21 | QVQLLDSGGGLVQAGGSLRLSCAASGLILVPNTMGWYRQAPGKERELVADIRSGGTTNYADSVKGRFTISRDNAKNTVYLVMNSLKPEDTAVSYCAKEKYDYVGDYEVDYWGHGTQVTVSS | low polyreactivity
22 | QVQLVESGGGLVQAGGSLRLSCAASGRIFGRYAMGWYRQAPGKERELVASIRSRGGSTYYADSVKGRFTISRDNAKNTVYLQMNSLIPEDTAVYYCAKTVTSGYYYAGRYDYWGQGTQVTVSS | high polyreactivity

Row | Sequence | polyreactivity (PSR sort gate)
23 | QVQLVESGGLLVQGGGILRLSCAASGRILQGYAMGWSRQAPGKERELVDAISSGGRTYYADSVKGRFTISRDNAKNNYYLQMNSLNPDDTAVYYCAAGECWRIHAYSDDFWVQGTQVTVSS | high polyreactivity
24 | QVQLVESGGGLVQAGGSLRLSCAASGRIFGIYAMGWYRQAPGKERELVAAITWNGGSTYYADSVKGRFTNSRDNAKNTVYLQMNSLKPEDTAVYYCAARTADYSYGRRVVTRYGYWGQGTQVTVSS | high polyreactivity
25 | QVQLVESGGGLVQAGGSLRLSCAASGFIFYYAMGWYRPAPGKERELVAAISSGSSTYADSVKGRFTISRDNAKNTVYLQMNSLKPEDTAVYYCATRYSSWYSNRDYDYWGQGTQVTVSS | low polyreactivity
26 | QVQLVESGGGLVQAGGSLRLSSASSGRIFAIYVMGWYRQAHGKERELVAAITSGGNTNYADSVKGRFTISRDNAKNTVYLQINSLKPEDSAVYYCAAFYYRRSFTLSYSSFDYWGQGTQVTVSS | low polyreactivity
27 | QVQLVESGGGLVQAGGSLRLSCAASGLTFVVYAMGWYRPAPGKERELVAASDFSGGDTYYADSVKGRFTISRDNAKNTVYLQRNSLKPEDTADYYCAAEYYGPSYYIGFDYWGQGTQVTVSS | high polyreactivity
28 | QVQLVESGGGLVQAGGSLRLSCAASGSNFVVYAMGWYRQAPGKERELVAAISWGIGSTYYADSVKGRFTISRDNAKNTVYLHMNSLKPQDTAVYYCAADTDIVLYDYWGQGTQVTVSS | low polyreactivity
29 | QVHLVESGGGLVQAGVSLRLSCAASGSIFRINGMGWYRQAPGKERELVAAITRSGGSTFYADSVKGRFTISRDTAKNTVYLQMNSLKPEETAVYYCAAVWYYSTVPARYEYWGQGTQVTVSS | low polyreactivity
30 | QVQLVESGGGLVQAGGSLRLSCAASGSMFYYYAMGWYRQPPGKERELVAAISSGGVGSTTYADSVKGRFTISRDNAKNTVYLQMNSLKPEDTAVYYCNADRPGYFYFYFNYWGQGTQVTVSS | high polyreactivity
31 | QVQLVESGGRLVQAGGSLRLSCAASGFIFDSYAMGWYRQAPGKERELVAAISWSGGRTYYADSVKGRFTISRDNAKNTVYLQMNSLKPEDTAVYYCNVRTKLSTSYDYWGQGTQVTVSS | high polyreactivity
32 | QVQLVESGGGLVQAGGSLRLSCAASGIIFRYYVMGWYRQAPGKERELVAAISWSGGSTYYADSVKGRFTISRDNAKNTVYLQMNSLKPEDTAVYYCAASRGILASEFGYWGQGTQVTVSS | high polyreactivity
33 | QVQLVESGGGLVQAGGSLRLTCAASGSTFTVNGMGWYRQAPGKERELVASITWSGGSTYYADSVKGRFTISRDNAKITVYLQMNSLKPEDTAVYYCAADEKLYITGYDYWGQGTQVTVSS | low polyreactivity
34 | QVQLVESGGGLVQAGGSLRLSCAASASIFPRNTMGWYRPAPGKERELVAAISRSGGSTYYADSVKGRFTISRDNAKNTVYLQMNSLKPEDTAVYYCAVSGGTSRRYYYWGQGTQVTVSS | high polyreactivity
35 | QVQLVESGGGLVQAGGSLRLSCAASGRTFVYNAMGWYRQAPGKERELVAAIDGGGDRTYYADSVKGRFTISRDNAKNTVYLQMNSLKQEDTAVYFCARDPGDTYYYSYPEGDYWGQGTQVTVSS | low polyreactivity
36 | QVQLVESGGGLVQAGGSLRLSCAASGITFRFYAMGWYRQAPGKERELVAVISRGGGTTYYADSVKGRFTISRDNAKNTVYLQMNSLKPEDTAVYYCNAVIAWYRSDEYDYWGQGTQVTVSS | high polyreactivity
37 | QVQLVESGGGLVQAGGSLRLRCAASGSIFQSNAMGWYRPAPGKESELVAAISSSGVRTYYADSVKGRFTISRDNAKNTVYLQMNSLKPEDTAVYYCATGWYYAGGPTYEYYYWGQGTQVTVSS | low polyreactivity
38 | QVQLVESGGGLVQAGGSLRLSCAASGRIFSYYAMGWYRQAPGKERELVAGIRSGCSTNYADSVKGRFTISRDNAKNTVYLQMNSLKPEDTAVYYCAARYFKFYSKGSFRYLYESWGQGTQVTVSS | high polyreactivity
39 | QVQLVESGGGLVQAGGSLRISCAASGITFYANVMGWYRQAPGKARELVAAISARRGSTYYADSVKGRFTISRDNAKNTVYLQMNSLKPEDTAVYYCATREAYRQQGGYGYWGQGTQVTVSS | high polyreactivity
40 | QVQVVESGGGIVQAGGSHRLSCAAYGSIFLPYAMGWYRQAPGKDRELVAAITRGGDSTYADSVKGRFTISRDNAMYTVDLQMNSLKRDDTAVFYCAAGAGFESDYWGQGTQVTVAS | low polyreactivity
41 | QVQLVESAAGLVQAGGSLRLSCAASGIIFSKYAMGWYRQAPGKERELVAASSSSGGSTYYADSVKGRFTISRDNAKNTVYLQMNSLKPEDTAVYYCAKGGGPNSRGYWGQGTQVTVSS | high polyreactivity
42 | QVQLVESGGGLVQAGGSLRLSCAASGIFSRYAMGWYRQAPGKERELVAAISSGDSTNYADSVKGRFTISRDNAKNTVYLQMNSLKPEDTAVYYCATERSHLATGQGYYYVQTFYYWGQGTQVTVSS | low polyreactivity
43 | QVQLVESGGGLVQAGGSLRLSCAASGSTFEYNAMGWYRQAPGKERELVASSTNYADSVKGRFTISLDNAKNTVYLQMNSLKPEDTAVYYCAREQGVNRNHDYWGQGTQVNVSS | low polyreactivity
